Holding throughout (assay): BLI
Conditions in all cases: none stated (T7 transcript); 3' end periodate-oxidised for biotin hydrazide; BLI (Octet RED96), biotin-tRNA on streptavidin tips: 50 mM Tris-HCl pH 8.0, 150 mM NaCl, 0.002% Tween-20, 25 C; 1:1 model

The subject of series [1] is OSGEPL1 (mature, delta-MTS) (Homo sapiens).
The subject of series [2] is OSGEPL1-K203A (Homo sapiens).
The test system of series [3] is OSGEPL1-K203E (Homo sapiens).
Series [4] has as its system OSGEPL1-K203Q (Homo sapiens).
Series [5] concerns OSGEPL1-K203R (Homo sapiens).
Series [6] relates to OSGEPL1-K299Q (Homo sapiens).

For hmtRNAThr, the Kd in series [1] was found to be 6.7 µM; in series [2] it was 29 µM; in series [3] it was 8.5 µM; in series [4], 14 µM; in series [5], 3.6 µM; in series [6], 6.8 µM.

hmtRNAThr-U34G yielded a Kd in series [1] of 4.1 µM.

With hmtRNAThr-U34C, the Kd in series [1] turned out to be 5.5 µM.
